Results published in PMC11472053, “Structural basis of DNA recognition by BEN domain proteins reveals a role for oligomerization in unmethylated DNA selection by BANP” (Nucleic Acids Research, 2024).

T1: NACC1 BEN D462A (human, UniProt Q96RE7 341-477, D462A)
T1 sequence: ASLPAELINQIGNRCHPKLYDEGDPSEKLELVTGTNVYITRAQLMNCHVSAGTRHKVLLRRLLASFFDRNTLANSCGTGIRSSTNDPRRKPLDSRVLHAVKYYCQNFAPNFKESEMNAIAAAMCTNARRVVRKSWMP

T2: NACC1 BEN R429A (human, UniProt Q96RE7 341-477, R429A)
T2 sequence: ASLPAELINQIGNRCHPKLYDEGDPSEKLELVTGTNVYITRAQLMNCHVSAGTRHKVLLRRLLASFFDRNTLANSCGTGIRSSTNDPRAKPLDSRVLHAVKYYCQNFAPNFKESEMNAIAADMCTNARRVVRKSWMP

T3: NACC1 BEN R421A (human, UniProt Q96RE7 341-477, R421A)
T3 sequence: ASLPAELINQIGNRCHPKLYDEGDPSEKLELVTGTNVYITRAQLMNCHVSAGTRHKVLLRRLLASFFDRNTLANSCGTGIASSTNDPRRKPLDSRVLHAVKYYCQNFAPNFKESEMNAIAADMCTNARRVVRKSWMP

T4: NACC1 BEN N466A (human, UniProt Q96RE7 341-477, N466A)
T4 sequence: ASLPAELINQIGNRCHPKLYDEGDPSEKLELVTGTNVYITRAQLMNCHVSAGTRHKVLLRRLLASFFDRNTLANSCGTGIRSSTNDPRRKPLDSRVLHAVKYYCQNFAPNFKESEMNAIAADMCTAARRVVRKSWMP

T5: NACC1 BEN WT (human, UniProt Q96RE7 341-477)
T5 sequence: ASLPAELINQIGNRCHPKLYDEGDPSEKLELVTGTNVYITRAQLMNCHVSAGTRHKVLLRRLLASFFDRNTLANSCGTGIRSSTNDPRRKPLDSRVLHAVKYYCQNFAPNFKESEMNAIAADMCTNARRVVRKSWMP

T6: NACC1 BEN R472A (human, UniProt Q96RE7 341-477, R472A)
T6 sequence: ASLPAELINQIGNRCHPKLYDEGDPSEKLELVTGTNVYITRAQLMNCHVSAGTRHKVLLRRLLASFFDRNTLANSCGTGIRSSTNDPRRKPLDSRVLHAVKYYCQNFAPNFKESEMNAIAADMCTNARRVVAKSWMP

T7: NACC1 BEN R469A (human, UniProt Q96RE7 341-477, R469A)
T7 sequence: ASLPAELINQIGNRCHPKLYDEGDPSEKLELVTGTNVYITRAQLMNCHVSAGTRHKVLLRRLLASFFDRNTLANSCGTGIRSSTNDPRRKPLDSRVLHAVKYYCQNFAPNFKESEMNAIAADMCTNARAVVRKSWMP

T8: BANP BEN WT (human, UniProt Q8N9N5 205-325)
T8 sequence: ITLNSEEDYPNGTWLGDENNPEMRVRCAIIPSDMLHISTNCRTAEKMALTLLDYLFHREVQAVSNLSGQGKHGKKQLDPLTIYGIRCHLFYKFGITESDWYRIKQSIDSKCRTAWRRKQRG

T9: BANP CC-BEN (ΔDBD) (human, UniProt Q8N9N5 1-360)
T9 sequence: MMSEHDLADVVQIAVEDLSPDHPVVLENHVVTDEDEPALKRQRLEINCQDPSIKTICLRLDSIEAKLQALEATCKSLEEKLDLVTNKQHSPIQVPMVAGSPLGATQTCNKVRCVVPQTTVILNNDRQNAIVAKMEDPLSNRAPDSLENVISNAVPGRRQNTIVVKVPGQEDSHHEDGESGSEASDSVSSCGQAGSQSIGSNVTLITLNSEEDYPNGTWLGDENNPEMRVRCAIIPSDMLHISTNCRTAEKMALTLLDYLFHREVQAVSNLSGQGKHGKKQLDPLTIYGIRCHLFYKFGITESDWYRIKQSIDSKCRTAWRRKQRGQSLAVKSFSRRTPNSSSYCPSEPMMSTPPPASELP

T10: BANP full-length WT (human, UniProt Q8N9N5 1-519)
T10 sequence: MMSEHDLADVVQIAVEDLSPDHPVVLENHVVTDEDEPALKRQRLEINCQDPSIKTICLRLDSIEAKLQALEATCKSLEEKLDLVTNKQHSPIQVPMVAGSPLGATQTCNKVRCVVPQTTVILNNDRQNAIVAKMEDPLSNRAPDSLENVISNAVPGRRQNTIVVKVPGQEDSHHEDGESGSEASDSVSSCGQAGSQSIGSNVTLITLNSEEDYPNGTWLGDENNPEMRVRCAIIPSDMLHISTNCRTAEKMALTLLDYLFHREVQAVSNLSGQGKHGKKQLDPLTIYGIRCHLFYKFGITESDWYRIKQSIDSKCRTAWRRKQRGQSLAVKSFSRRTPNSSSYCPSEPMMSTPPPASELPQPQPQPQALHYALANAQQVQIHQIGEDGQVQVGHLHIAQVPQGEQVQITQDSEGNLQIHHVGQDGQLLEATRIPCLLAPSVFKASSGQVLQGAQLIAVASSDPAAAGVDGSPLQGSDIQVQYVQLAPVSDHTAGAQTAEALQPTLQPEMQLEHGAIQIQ

T11: BANP ΔCC (human, UniProt Q8N9N5 90-519)
T11 sequence: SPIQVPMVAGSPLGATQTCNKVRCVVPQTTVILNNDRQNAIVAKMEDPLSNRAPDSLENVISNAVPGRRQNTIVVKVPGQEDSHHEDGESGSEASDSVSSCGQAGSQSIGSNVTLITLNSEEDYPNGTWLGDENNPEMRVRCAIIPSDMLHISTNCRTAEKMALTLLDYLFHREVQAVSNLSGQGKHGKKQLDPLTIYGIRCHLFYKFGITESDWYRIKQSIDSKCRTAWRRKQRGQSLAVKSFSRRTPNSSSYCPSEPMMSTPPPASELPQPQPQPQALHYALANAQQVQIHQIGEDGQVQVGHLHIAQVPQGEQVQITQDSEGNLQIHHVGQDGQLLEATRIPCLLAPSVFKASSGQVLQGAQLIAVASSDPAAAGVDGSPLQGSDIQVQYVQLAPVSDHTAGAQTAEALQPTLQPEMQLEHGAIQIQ

T12: GST-BANP BEN (human, UniProt Q8N9N5 205-325)
T12 sequence: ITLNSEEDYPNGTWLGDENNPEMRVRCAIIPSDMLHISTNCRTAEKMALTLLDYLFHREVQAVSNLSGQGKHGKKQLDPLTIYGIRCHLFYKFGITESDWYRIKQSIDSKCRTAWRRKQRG

T13: BANP BEN-DBD (human, UniProt Q8N9N5 205-519)
T13 sequence: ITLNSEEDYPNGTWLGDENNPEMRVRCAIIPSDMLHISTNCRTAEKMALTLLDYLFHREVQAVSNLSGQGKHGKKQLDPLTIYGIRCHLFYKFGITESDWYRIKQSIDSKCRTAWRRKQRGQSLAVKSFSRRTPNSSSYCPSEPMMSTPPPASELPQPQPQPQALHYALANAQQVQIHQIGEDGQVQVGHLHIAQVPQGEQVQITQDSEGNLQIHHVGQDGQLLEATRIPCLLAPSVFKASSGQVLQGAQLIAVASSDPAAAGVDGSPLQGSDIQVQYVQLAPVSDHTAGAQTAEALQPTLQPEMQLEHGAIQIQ


Experiments:
[1] = target: T1, NACC1 BEN D462A; experiment: ITC; ITC: 20 mM Tris pH 7.5, 200 mM NaCl, 2 mM beta-mercaptoethanol, 20 C; EMSA: 20 mM Tris pH 7.0, 200 mM NaCl, 2 mM DTT, 4 C, 1.2% agarose in TAE; details: protein: recombinant; tags: His-SUMO or His-MBP, cleaved; blunt, self-complementary
[2] = target: T2, NACC1 BEN R429A; experiment: as above; details: protein: recombinant; tags: His-SUMO or His-MBP, cleaved; blunt, self-complementary
[3] = target: T3, NACC1 BEN R421A; experiment: as above; details: protein: recombinant; tags: His-SUMO or His-MBP, cleaved; blunt, self-complementary
[4] = target: T4, NACC1 BEN N466A; experiment: as above; details: protein: recombinant; tags: His-SUMO or His-MBP, cleaved; blunt, self-complementary
[5] = target: T5, NACC1 BEN WT; experiment: as above; details: protein: recombinant; tags: His-SUMO or His-MBP, cleaved; blunt, self-complementary
[6] = target: T6, NACC1 BEN R472A; experiment: as above; details: protein: recombinant; tags: His-SUMO or His-MBP, cleaved; blunt, self-complementary
[7] = target: T7, NACC1 BEN R469A; experiment: ITC; Kd N.A.; almost completely abolished; ITC: 20 mM Tris pH 7.5, 200 mM NaCl, 2 mM beta-mercaptoethanol, 20 C; EMSA: 20 mM Tris pH 7.0, 200 mM NaCl, 2 mM DTT, 4 C, 1.2% agarose in TAE; details: protein: recombinant; tags: His-SUMO or His-MBP, cleaved; blunt, self-complementary
[8] = target: T8, BANP BEN WT; experiment: ITC; ITC: 20 mM Tris pH 7.5, 200 mM NaCl, 2 mM beta-mercaptoethanol, 20 C; EMSA: 20 mM Tris pH 7.0, 200 mM NaCl, 2 mM DTT, 4 C, 1.2% agarose in TAE; details: protein: recombinant; tags: His-SUMO or His-MBP, cleaved; chain copies: 2; blunt, self-complementary
[9] = target: T9, BANP CC-BEN (ΔDBD); experiment: as above; details: protein: recombinant; tags: His-SUMO or His-MBP, cleaved; blunt, self-complementary
[10] = target: T10, BANP full-length WT; experiment: as above; details: protein: recombinant; tags: His-SUMO or His-MBP, cleaved; chain copies: 4; blunt, self-complementary
[11] = target: T11, BANP ΔCC; experiment: as above; details: protein: recombinant; tags: His-SUMO or His-MBP, cleaved; blunt, self-complementary
[12] = target: T12, GST-BANP BEN; experiment: as above; details: protein: recombinant; tags: N-terminal GST fusion; chain copies: 2; blunt, self-complementary
[13] = target: T13, BANP BEN-DBD; experiment: as above; details: protein: recombinant; tags: His-SUMO or His-MBP, cleaved; blunt, self-complementary

Binder	Kd [1]	Kd [2]	Kd [3]	Kd [4]	Kd [5]	Kd [6]	binding result [7]	Kd [8]	Kd [9]	Kd [10]	Kd [11]	Kd [12]	Kd [13]
12-CATG (dsDNA) DNA 1: ATTACATGTAAT DNA 2: ATTACATGTAAT	4.6 ± 0.4 µM	34.7 ± 4.5 µM	4.6 ± 0.6 µM	2.9 ± 0.4 µM	1.3 ± 0.2 µM	8.6 ± 1.4 µM	no binding	–	–	–	–	–	–
12-mCGCG (dsDNA, 5-methyl-C at position 5 of each strand (palindrome; called hemi-methylated, one CpG methylated)) DNA 1: ATCTCGCGAGAT DNA 2: ATCTCGCGAGAT	–	–	–	–	–	–	–	5.6 ± 0.7 µM	4.3 ± 0.8 µM	4.9 ± 1.4 µM	5.6 ± 0.9 µM	3.5 ± 0.6 µM	8.3 ± 0.6 µM
